Values belong to the binder of their own block, whether it stands above or below them. Numbered stars: 1 amine (or outer) side, 2 acyl side, 3 side chain; on linkers, the order of the positions; unused ones are H or OH. Bridge positions count the residues as written; N and C are the ends. Side chains are listed from the residue outwards. Ends that are not written are not given here. * marks the point of attachment. C20 diacid = O=C(O)CCCCCCCCCCCCCCCCCCC(=O)*; γGlu = O=C(O)[C@H](CCC(=O)[*:2])N[*:1]; AEEA = NCCOCCOCC(=O)O
Legend:
[1] = biological target: T1, human calcitonin receptor (human, UniProt P30988 25-474); assay: ratio of hCTR IC50 to hAmylin-R IC50 (reference: human amylin receptor)
T1 construct: whole, on cells; Used as cell membranes; also called hCTR; hCT
T1 sequence (looked up): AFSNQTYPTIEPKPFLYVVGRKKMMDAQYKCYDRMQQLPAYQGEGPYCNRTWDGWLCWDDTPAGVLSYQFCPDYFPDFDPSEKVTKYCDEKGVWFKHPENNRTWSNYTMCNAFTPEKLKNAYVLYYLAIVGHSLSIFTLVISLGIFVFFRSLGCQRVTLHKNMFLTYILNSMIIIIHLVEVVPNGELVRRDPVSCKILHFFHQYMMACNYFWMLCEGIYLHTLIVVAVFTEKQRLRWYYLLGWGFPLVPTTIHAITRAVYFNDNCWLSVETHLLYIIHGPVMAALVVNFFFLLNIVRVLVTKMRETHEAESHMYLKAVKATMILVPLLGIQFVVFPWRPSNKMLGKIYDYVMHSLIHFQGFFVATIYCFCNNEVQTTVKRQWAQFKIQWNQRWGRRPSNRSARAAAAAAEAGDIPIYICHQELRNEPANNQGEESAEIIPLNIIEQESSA
Protocol: The resulting pellet was resuspended, homogenized and centrifuged (20.000 rpm, 15 min) in a buffer containing 20 mM Na-HEPES and 0.1 mM EDTA (pH 7.4, buffer 2). The resulting pellet was resuspended in buffer 2 and protein concentration was measured (BCA protein Assay, Pierce). The homogenate was kept cold during the whole procedure. The membranes were kept at −80° C. until use. The assay was performed in a 384 well Optiplate (PerkinElmer) in a total volume of 40 ul. Membranes were mixed with SPA beads. Final concentration of membranes 35 ng/μL final and SPA beads was 0.05 mg/well. Test-compounds were dissolved in DMSO and further diluted in assay buffer (50 mM Hepes, pH 7.4, 1 mM CaCl2, 5 mM MgCl₂, 0.1% OA and 0.02% Tween20). […] The final mixture was incubated with shaking at 400 rpm for 120 min at 25° C. prior to centrifugation (1500 rpm, 10 min). Samples were analyzed on TopCounter™ (Packard). The IC₅₀ was calculated using (one site binding competition analysis) GraphPad Prism5 as a measure of receptor affinity.
Membranes were prepared in the following way; the cells were rinsed with PBS and incubated with Versene for approximately 5 min before harvesting. The cells were flushed with PBS and the cell-suspension was centrifuged for 5 min at 1000 rpm. Cells were homogenized (Ultrathurrax) in a buffer containing 20 mM Na-HEPES and 10 mM EDTA (pH 7.4) and centrifuged at 20.000 rpm for 15 min. The resulting pellet was resuspended, homogenized and centrifuged (20.000 rpm, 15 min) in a buffer containing 20 mM Na-HEPES and 0.1 mM EDTA (pH 7.4, buffer 2). The resulting pellet was resuspended in buffer 2 and protein concentration was measured (BCA protein Assay, Pierce). The homogenate was kept cold during the whole procedure. The membranes were kept at −80° C. until use. Assay was performed in a 384 well Optiplate (PerkinElmer) in a total volume of 40 ul. Membranes were mixed with SPA beads.

[2] = biological target: T1, human calcitonin receptor; assay: SPA competition on BHK cell membranes, 125I-calcitonin as radioligand (Assay VII)
Protocol: Membranes were prepared in the following way; the cells were rinsed with PBS and incubated with Versene for approximately 5 min before harvesting. The cells were flushed with PBS and the cell-suspension was centrifuged for 5 min at 1000 rpm. Cells were homogenized (Ultrathurrax) in a buffer containing 20 mM Na-HEPES and 10 mM EDTA (pH 7.4) and centrifuged at 20.000 rpm for 15 min. The resulting pellet was resuspended, homogenized and centrifuged (20.000 rpm, 15 min) in a buffer containing 20 mM Na-HEPES and 0.1 mM EDTA (pH 7.4, buffer 2). The resulting pellet was resuspended in buffer 2 and protein concentration was measured (BCA protein Assay, Pierce). The homogenate was kept cold during the whole procedure. The membranes were kept at −80° C. until use. Assay was performed in a 384 well Optiplate (PerkinElmer) in a total volume of 40 ul. Membranes were mixed with SPA beads. Final concentration of membranes 35 ng/μL final and Final concentration of SPA beads was 0.05 mg/well. Test-compounds were dissolved in DMSO and further diluted in assay buffer (50 mM Hepes, pH 7.4, 1 mM CaCl2, 5 mM MgCl₂, 0.1% OA and 0.02% Tween20). […] The final mixture was incubated for 120 min with shaking at 400 rpm at 25° C. prior to centrifugation (1500 rpm, 10 min). Samples were analyzed on TopCounter™ (Packard). The […] was calculated using (one site binding competition analysis) GraphPad Prism5 as a measure of receptor affinity.

B1: N^ε1-[2-[2-[2-[[(4S)-4-carboxy-4-(19-carboxynonadecanoylamino)butanoyl]amino]ethoxy]ethoxy]acetyl]-[Gly14,Arg17,Pro21,Pro27,Pro31]-h-amylin (peptide)
peptide: K([AEEA-γGlu-C20 diacid])CNTATCATQRLAGFLRHSSPNFGAIPSSTPVGSNTY-NH2
modifications: disulfide 2-7; N-terminus assumed
SMILES: CC[C@H](C)[C@H](NC(=O)[C@H](C)NC(=O)CNC(=O)[C@H](Cc1ccccc1)NC(=O)[C@H](CC(N)=O)NC(=O)[C@@H]1CCCN1C(=O)[C@H](CO)NC(=O)[C@H](CO)NC(=O)[C@H](Cc1c[nH]cn1)NC(=O)[C@H](CCCNC(=N)N)NC(=O)[C@H](CC(C)C)NC(=O)[C@H](Cc1ccccc1)NC(=O)CNC(=O)[C@H](C)NC(=O)[C@H](CC(C)C)NC(=O)[C@H](CCCNC(=N)N)NC(=O)[C@H](CCC(N)=O)NC(=O)[C@@H](NC(=O)[C@H](C)NC(=O)[C@@H]1CSSC[C@H](NC(=O)[C@@H](N)CCCCNC(=O)COCCOCCNC(=O)CC[C@H](NC(=O)CCCCCCCCCCCCCCCCCCC(=O)O)C(=O)O)C(=O)N[C@@H](CC(N)=O)C(=O)N[C@@H]([C@@H](C)O)C(=O)N[C@@H](C)C(=O)N[C@@H]([C@@H](C)O)C(=O)N1)[C@@H](C)O)C(=O)N1CCC[C@H]1C(=O)N[C@@H](CO)C(=O)N[C@@H](CO)C(=O)N[C@H](C(=O)N1CCC[C@H]1C(=O)N[C@H](C(=O)NCC(=O)N[C@@H](CO)C(=O)N[C@@H](CC(N)=O)C(=O)N[C@H](C(=O)N[C@@H](Cc1ccc(O)cc1)C(N)=O)[C@@H](C)O)C(C)C)[C@@H](C)O
notes: also called compound 71
Ratio hCT/hAmylin binding [1]: 32 | IC50 [2]: 1.53 nM

B2: N^ε1-[2-[2-[2-[[(4S)-4-carboxy-4-(19-carboxynonadecanoylamino)butanoyl]amino]ethoxy]ethoxy]acetyl]-[His14,Arg17,Pro21,Pro27,Pro34]-h-amylin (peptide)
peptide: K([AEEA-γGlu-C20 diacid])CNTATCATQRLAHFLRHSSPNFGAIPSSTNVGPNTY-NH2
modifications: disulfide 2-7; N-terminus assumed
SMILES: CC[C@H](C)[C@H](NC(=O)[C@H](C)NC(=O)CNC(=O)[C@H](Cc1ccccc1)NC(=O)[C@H](CC(N)=O)NC(=O)[C@@H]1CCCN1C(=O)[C@H](CO)NC(=O)[C@H](CO)NC(=O)[C@H](Cc1c[nH]cn1)NC(=O)[C@H](CCCNC(=N)N)NC(=O)[C@H](CC(C)C)NC(=O)[C@H](Cc1ccccc1)NC(=O)[C@H](Cc1c[nH]cn1)NC(=O)[C@H](C)NC(=O)[C@H](CC(C)C)NC(=O)[C@H](CCCNC(=N)N)NC(=O)[C@H](CCC(N)=O)NC(=O)[C@@H](NC(=O)[C@H](C)NC(=O)[C@@H]1CSSC[C@H](NC(=O)[C@@H](N)CCCCNC(=O)COCCOCCNC(=O)CC[C@H](NC(=O)CCCCCCCCCCCCCCCCCCC(=O)O)C(=O)O)C(=O)N[C@@H](CC(N)=O)C(=O)N[C@@H]([C@@H](C)O)C(=O)N[C@@H](C)C(=O)N[C@@H]([C@@H](C)O)C(=O)N1)[C@@H](C)O)C(=O)N1CCC[C@H]1C(=O)N[C@@H](CO)C(=O)N[C@@H](CO)C(=O)N[C@H](C(=O)N[C@@H](CC(N)=O)C(=O)N[C@H](C(=O)NCC(=O)N1CCC[C@H]1C(=O)N[C@@H](CC(N)=O)C(=O)N[C@H](C(=O)N[C@@H](Cc1ccc(O)cc1)C(N)=O)[C@@H](C)O)C(C)C)[C@@H](C)O
notes: also called compound 68
Ratio hCT/hAmylin binding [1]: 64.4 | IC50 [2]: 5.66 nM

Continued by falling IC50 [2], values first:

Ratio hCT/hAmylin binding [1]: 120 | IC50 [2]: 88.9 nM
B4: N^ε1-[2-[2-[2-[[(4S)-4-carboxy-4-(19-carboxynonadecanoylamino)butanoyl]amino]ethoxy]ethoxy]acetyl]-[His14,Arg17,Pro21,Pro27,Arg34]-h-amylin (peptide)
peptide: K([AEEA-γGlu-C20 diacid])CNTATCATQRLAHFLRHSSPNFGAIPSSTNVGRNTY-NH2
modifications: disulfide 2-7; N-terminus assumed
SMILES: CC[C@H](C)[C@H](NC(=O)[C@H](C)NC(=O)CNC(=O)[C@H](Cc1ccccc1)NC(=O)[C@H](CC(N)=O)NC(=O)[C@@H]1CCCN1C(=O)[C@H](CO)NC(=O)[C@H](CO)NC(=O)[C@H](Cc1c[nH]cn1)NC(=O)[C@H](CCCNC(=N)N)NC(=O)[C@H](CC(C)C)NC(=O)[C@H](Cc1ccccc1)NC(=O)[C@H](Cc1c[nH]cn1)NC(=O)[C@H](C)NC(=O)[C@H](CC(C)C)NC(=O)[C@H](CCCNC(=N)N)NC(=O)[C@H](CCC(N)=O)NC(=O)[C@@H](NC(=O)[C@H](C)NC(=O)[C@@H]1CSSC[C@H](NC(=O)[C@@H](N)CCCCNC(=O)COCCOCCNC(=O)CC[C@H](NC(=O)CCCCCCCCCCCCCCCCCCC(=O)O)C(=O)O)C(=O)N[C@@H](CC(N)=O)C(=O)N[C@@H]([C@@H](C)O)C(=O)N[C@@H](C)C(=O)N[C@@H]([C@@H](C)O)C(=O)N1)[C@@H](C)O)C(=O)N1CCC[C@H]1C(=O)N[C@@H](CO)C(=O)N[C@@H](CO)C(=O)N[C@H](C(=O)N[C@@H](CC(N)=O)C(=O)N[C@H](C(=O)NCC(=O)N[C@@H](CCCNC(=N)N)C(=O)N[C@@H](CC(N)=O)C(=O)N[C@H](C(=O)N[C@@H](Cc1ccc(O)cc1)C(N)=O)[C@@H](C)O)C(C)C)[C@@H](C)O
notes: also called compound 84

Ratio hCT/hAmylin binding [1]: 68.1 | IC50 [2]: 19.8 nM
B3: N^ε1-[2-[2-[2-[[(4S)-4-carboxy-4-(19-carboxynonadecanoylamino)butanoyl]amino]ethoxy]ethoxy]acetyl]-[His14,Arg17,Pro21,Pro27,His34]-h-amylin (peptide)
peptide: K([AEEA-γGlu-C20 diacid])CNTATCATQRLAHFLRHSSPNFGAIPSSTNVGHNTY-NH2
modifications: disulfide 2-7; N-terminus assumed
SMILES: CC[C@H](C)[C@H](NC(=O)[C@H](C)NC(=O)CNC(=O)[C@H](Cc1ccccc1)NC(=O)[C@H](CC(N)=O)NC(=O)[C@@H]1CCCN1C(=O)[C@H](CO)NC(=O)[C@H](CO)NC(=O)[C@H](Cc1c[nH]cn1)NC(=O)[C@H](CCCNC(=N)N)NC(=O)[C@H](CC(C)C)NC(=O)[C@H](Cc1ccccc1)NC(=O)[C@H](Cc1c[nH]cn1)NC(=O)[C@H](C)NC(=O)[C@H](CC(C)C)NC(=O)[C@H](CCCNC(=N)N)NC(=O)[C@H](CCC(N)=O)NC(=O)[C@@H](NC(=O)[C@H](C)NC(=O)[C@@H]1CSSC[C@H](NC(=O)[C@@H](N)CCCCNC(=O)COCCOCCNC(=O)CC[C@H](NC(=O)CCCCCCCCCCCCCCCCCCC(=O)O)C(=O)O)C(=O)N[C@@H](CC(N)=O)C(=O)N[C@@H]([C@@H](C)O)C(=O)N[C@@H](C)C(=O)N[C@@H]([C@@H](C)O)C(=O)N1)[C@@H](C)O)C(=O)N1CCC[C@H]1C(=O)N[C@@H](CO)C(=O)N[C@@H](CO)C(=O)N[C@H](C(=O)N[C@@H](CC(N)=O)C(=O)N[C@H](C(=O)NCC(=O)N[C@@H](Cc1c[nH]cn1)C(=O)N[C@@H](CC(N)=O)C(=O)N[C@H](C(=O)N[C@@H](Cc1ccc(O)cc1)C(N)=O)[C@@H](C)O)C(C)C)[C@@H](C)O
notes: also called compound 80

Reference: patent US20140087995A1 (published 2014)
